One block for each binder: values may come before it. Starred links: 1 amine or outer side, 2 acyl side, 3 side chain; linkers in the order of their positions; H or OH if unused. Positions of bridges follow the written chain, without caps; N, C: chain ends. Non-standard residues stand in square brackets, D forms with d. Primed or numbered codes have the meaning given here. PyrS2″ = (S)-3-amino-1-((pent-4-en-1-yloxy)carbonyl)pyrrolidine-3-carboxylic acid (stapling residue), C=CCCCOC(=O)N1CC[C@@](N[*:1])(C(=O)[*:2])C1; B5(4) = 2,2-bis(4-pentenyl)glycine = 2-amino-2-(pent-4-en-1-yl)hept-6-enoic acid (stitching residue), C=CCCCC(CCCC=C)(N[*:1])C(=O)[*:2]; B5(6) = 2-amino-2-(pent-4-en-1-yl)hept-6-enoic acid (bis(4-pentenyl)glycine), stitching residue, C=CCCCC(CCCC=C)(N[*:1])C(=O)[*:2]; TfeGA = (S)-2-amino-3-((carboxymethyl)(2,2,2-trifluoroethyl)amino)propanoic acid, O=C([C@H](CN(CC(=O)[*:3])CC(F)(F)F)N[*:1])[*:2]; B5(3) = 2,2-bis(4-pentenyl)glycine (stitching residue), C=CCCCC(CCCC=C)(N[*:1])C(=O)[*:2]; B5″ = 2,2-bis(4-pentenyl)glycine, stitching residue, C=CCCCC(CCCC=C)(N[*:1])C(=O)[*:2]; Phe(3-COOH) = N[C@@H](Cc1cccc(C(=O)O)c1)C(=O)O; Bta = N[C@@H](Cc1csc2ccccc12)C(=O)O; Lys(iPr) = CC(C)NCCCC[C@H](N)C(=O)O; αAllylPro = C=CC[C@@]1(C(=O)O)CCCN1; Cha = N[C@@H](CC1CCCCC1)C(=O)O; S8 = C=CCCCCCC[C@](C)(N)C(=O)O; NMeS = CN[C@@H](CO)C(=O)O
Tests used:
[1] = biological target: T1, B-cat-Halo (beta-catenin HaloTag fusion expressed in HEK293 cells) (UniProt P35222 1-781, HaloTag NanoBRET 618 Ligand bound to the HaloTag); experiment: cell-based or functional assay
T1 sequence (looked up): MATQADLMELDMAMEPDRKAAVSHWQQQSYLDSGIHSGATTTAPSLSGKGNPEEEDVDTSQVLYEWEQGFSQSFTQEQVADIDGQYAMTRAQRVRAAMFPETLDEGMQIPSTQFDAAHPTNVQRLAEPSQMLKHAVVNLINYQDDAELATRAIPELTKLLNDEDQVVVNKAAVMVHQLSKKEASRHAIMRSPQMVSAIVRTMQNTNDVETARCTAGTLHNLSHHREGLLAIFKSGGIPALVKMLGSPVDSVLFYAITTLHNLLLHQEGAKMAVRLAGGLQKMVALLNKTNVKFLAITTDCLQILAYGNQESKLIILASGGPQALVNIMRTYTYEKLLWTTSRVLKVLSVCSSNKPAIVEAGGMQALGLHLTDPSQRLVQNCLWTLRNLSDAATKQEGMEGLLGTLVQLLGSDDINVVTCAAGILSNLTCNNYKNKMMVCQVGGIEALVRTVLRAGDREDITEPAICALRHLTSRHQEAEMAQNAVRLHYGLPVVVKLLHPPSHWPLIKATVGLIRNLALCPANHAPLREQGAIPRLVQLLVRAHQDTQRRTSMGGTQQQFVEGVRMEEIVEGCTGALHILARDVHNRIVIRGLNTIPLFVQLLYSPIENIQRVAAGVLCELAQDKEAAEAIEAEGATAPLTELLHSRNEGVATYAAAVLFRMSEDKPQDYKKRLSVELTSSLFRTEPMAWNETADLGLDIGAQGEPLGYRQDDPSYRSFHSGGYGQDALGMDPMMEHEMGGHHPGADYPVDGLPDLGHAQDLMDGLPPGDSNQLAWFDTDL

[2] = biological target: T2, full-length beta-Catenin (Uniprot ID P35222) (Homo sapiens (Human), UniProt P35222 1-781); experiment: fluorescence polarization competition; full-length beta-catenin with 5FAM-TCF4(10-53) probe as competitor
T2 construct: also called bCat; B-Catenin
T2 sequence: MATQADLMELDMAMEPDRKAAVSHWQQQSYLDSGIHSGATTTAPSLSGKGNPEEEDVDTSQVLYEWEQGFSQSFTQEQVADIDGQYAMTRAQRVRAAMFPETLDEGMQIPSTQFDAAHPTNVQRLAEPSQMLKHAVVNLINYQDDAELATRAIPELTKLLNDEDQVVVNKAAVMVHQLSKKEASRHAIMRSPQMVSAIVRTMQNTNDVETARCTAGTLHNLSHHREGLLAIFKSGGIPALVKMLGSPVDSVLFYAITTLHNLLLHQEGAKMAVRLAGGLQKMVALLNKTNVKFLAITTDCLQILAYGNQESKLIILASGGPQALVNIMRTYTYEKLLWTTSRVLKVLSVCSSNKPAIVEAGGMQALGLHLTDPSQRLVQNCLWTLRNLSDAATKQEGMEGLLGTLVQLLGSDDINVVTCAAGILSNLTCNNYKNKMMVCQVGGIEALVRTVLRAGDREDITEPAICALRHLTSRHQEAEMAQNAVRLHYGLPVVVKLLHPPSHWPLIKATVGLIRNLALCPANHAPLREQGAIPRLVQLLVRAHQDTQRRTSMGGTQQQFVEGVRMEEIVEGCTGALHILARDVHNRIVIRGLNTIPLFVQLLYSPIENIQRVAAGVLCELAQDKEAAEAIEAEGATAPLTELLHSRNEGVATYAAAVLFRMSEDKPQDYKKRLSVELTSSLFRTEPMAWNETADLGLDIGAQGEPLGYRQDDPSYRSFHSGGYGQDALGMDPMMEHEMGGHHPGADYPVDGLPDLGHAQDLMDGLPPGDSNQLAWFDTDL
Description: The plate was incubated protected from light for 60 minutes at 20° C. prior to read. Reads were performed on a CLARIOstar plate reader (BMG Labtech) in duplicate, and data were fitted to a 1:1 binding model with hill slope using an in-house script. All provided concentrations are final concentrations.

[3] = biological target: T3, full-length beta-Catenin (Uniprot ID P35222) (Homo sapiens (Human), UniProt P35222 1-781); experiment: fluorescence polarization competition; full-length beta-catenin, competitor 5FAM-TCF4(10-53) probe
T3 construct: also called bCat; B-Catenin
T3 sequence: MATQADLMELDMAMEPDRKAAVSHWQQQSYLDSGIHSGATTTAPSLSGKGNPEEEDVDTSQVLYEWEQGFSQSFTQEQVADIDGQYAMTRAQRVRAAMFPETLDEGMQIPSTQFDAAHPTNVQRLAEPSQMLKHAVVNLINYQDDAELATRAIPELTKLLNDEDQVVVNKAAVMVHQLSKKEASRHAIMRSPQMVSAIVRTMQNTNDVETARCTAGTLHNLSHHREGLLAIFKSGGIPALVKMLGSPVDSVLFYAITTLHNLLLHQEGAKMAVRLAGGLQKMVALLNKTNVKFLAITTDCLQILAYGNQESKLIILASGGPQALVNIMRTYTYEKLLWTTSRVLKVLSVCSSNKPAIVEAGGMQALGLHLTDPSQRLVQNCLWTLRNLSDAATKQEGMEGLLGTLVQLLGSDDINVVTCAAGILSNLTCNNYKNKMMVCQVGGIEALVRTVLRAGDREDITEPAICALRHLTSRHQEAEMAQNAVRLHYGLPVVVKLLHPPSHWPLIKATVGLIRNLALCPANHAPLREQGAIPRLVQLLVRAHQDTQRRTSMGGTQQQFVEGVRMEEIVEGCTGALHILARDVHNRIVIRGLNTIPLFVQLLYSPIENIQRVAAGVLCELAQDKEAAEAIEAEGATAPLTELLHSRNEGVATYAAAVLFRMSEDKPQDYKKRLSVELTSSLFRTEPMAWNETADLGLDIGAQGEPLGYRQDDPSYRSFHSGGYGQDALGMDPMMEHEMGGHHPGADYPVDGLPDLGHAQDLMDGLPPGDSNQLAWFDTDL
In short: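 Fluorescence polarization was read in duplicate after the plate sat 60 minutes at 20° C. shielded from light. Values come from fitting to a 1:1 binding model with hill slope.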

[4] = biological target: T4, B-cat-Halo (NanoBRET construct expressed in HEK293 cells) (UniProt P35222 1-781, HaloTag NanoBRET 618 Ligand bound in the assay); experiment: cell-based or functional assay
T4 sequence (looked up): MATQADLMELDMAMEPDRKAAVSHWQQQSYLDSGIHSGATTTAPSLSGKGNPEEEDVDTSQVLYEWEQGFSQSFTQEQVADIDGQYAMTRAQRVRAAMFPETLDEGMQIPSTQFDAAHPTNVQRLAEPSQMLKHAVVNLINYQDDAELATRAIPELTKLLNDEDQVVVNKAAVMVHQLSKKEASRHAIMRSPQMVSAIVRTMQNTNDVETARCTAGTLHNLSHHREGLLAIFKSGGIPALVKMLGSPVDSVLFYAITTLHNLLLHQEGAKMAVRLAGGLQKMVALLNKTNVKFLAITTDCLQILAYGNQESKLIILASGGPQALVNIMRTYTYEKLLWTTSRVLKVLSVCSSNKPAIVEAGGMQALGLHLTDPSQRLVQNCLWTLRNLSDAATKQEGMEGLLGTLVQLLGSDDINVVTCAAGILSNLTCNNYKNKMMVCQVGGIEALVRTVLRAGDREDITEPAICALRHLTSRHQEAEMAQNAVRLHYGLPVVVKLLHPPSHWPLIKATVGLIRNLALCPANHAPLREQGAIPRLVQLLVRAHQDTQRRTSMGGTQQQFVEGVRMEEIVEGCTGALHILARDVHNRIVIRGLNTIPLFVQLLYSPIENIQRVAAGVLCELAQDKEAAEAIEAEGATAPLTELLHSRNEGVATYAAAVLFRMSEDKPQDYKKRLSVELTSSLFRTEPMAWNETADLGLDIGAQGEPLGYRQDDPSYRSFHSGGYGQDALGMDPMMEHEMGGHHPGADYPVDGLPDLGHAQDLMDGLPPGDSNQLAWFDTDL

NanoBRET Abs IC50 [1]: > 20000 nM
B1: I-2340 (peptide)
peptide: Ac-[αAllylPro]N[Cha][B5(3)]D[Phe(3-COOH)][Lys(iPr)]AFL[PyrS2″]F[Bta]Q-NH2
modifications: staple 1-4, 4-11

IC50 [2]: 608 nM
B2: I-760 (peptide)
peptide: Ac-[αAllylPro]DL[B5″]DEAAFN[S8]F[Bta][NMeS]-NH2
modifications: staple 1-4, 4-11
notes: Stapled peptide; also called Ac-PL3-Asp-Leu-B5-Asp-Glu-Ala-Ala-Phe-Asn-S8-Phe-BztA-NMeS-NH2

IC50 [2]: 56 nM
B6: I-756 (peptide)
peptide: Ac-[αAllylPro]DL[B5(4)]DEAAFN[S8]F[Bta][dS]-NH2
modifications: staple 1-4, 4-11
notes: Stapled peptide; also called Ac-PL3-Asp-Leu-B5-Asp-Glu-Ala-Ala-Phe-Asn-S8-Phe-BztA-dSer-NH2

NanoBRET Abs IC50 [1]: > 20000 nM
B7: I-2350 (peptide)
peptide: Ac-[αAllylPro]N[Cha][B5(3)]DQ[Lys(iPr)]AFL[PyrS2″]F[Bta]K-NH2
modifications: staple 1-4, 4-11

NanoBRET Abs IC50 [1]: > 20000 nM
B8: I-2341 (peptide)
peptide: Ac-[αAllylPro]N[Cha][B5(3)]D[TfeGA][Lys(iPr)]AFL[PyrS2″]F[Bta]Q-NH2
modifications: staple 1-4, 4-11

IC50 [2]: 64 nM
B10: I-757 (peptide)
peptide: Ac-[αAllylPro]DL[B5(4)]DEAAFN[S8]F[Bta][dN]-NH2
modifications: staple 1-4, 4-11; also: earlier eluting HPLC peak (staple isomer)
notes: Stapled peptide; same description as I-758, earlier eluting HPLC peak (staple isomer composition); also called Ac-PL3-Asp-Leu-B5-Asp-Glu-Ala-Ala-Phe-Asn-S8-Phe-BztA-dAsn-NH2

The next lines start with the binder.

B3: I-469 (peptide)
peptide: Ac-[αAllylPro]DI[B5(6)]DDAAFN[S8]F[Bta]H-NH2
modifications: staple 1-4, 4-11; also: staple isomer composition: earlier-eluting HPLC peak
notes: Stapled peptide; earlier-eluting HPLC peak (staple isomer composition)
IC50 [3]: 27 nM

B4: I-467 (peptide)
peptide: Ac-[αAllylPro]DI[B5(6)]DDAAFN[S8]F[Bta]Q-NH2
modifications: staple 1-4, 4-11; also: staple isomer composition: earlier-eluting HPLC peak
notes: as for B3
IC50 [3]: 44 nM

B5: I-468 (peptide)
peptide: Ac-[αAllylPro]DI[B5(6)]DDAAFN[S8]F[Bta]Q-NH2
modifications: staple 1-4, 4-11; also: staple isomer composition: later-eluting HPLC peak
notes: Stapled peptide; later-eluting HPLC peak (staple isomer composition)
IC50 [3]: 27 nM

B9: I-751 (peptide)
peptide: Ac-[αAllylPro]DL[B5(4)]DEAAFN[S8]F[Bta]S-NH2
modifications: staple 1-4, 4-11; also: olefin E/Z not assigned, later-eluting staple isomer
notes: Stapled peptide; shares its description with I-750, later eluting HPLC peak (staple isomer composition); also called Ac-PL3-Asp-Leu-B5-Asp-Glu-Ala-Ala-Phe-Asn-S8-Phe-BztA-Ser-NH2
NanoBRET Abs IC50 [4]: 7100 nM
IC50 [2]: 29 nM

B11: I-754 (peptide)
peptide: XDLXDEAAFNXFXT
modifications: not fully specified; Ac-PL3-Asp-Leu-B5-Asp-Glu-Ala-Ala-Phe-Asn-S8-Phe-BztA-dThr-NH2: N-terminal acetyl; C-terminal amide; PL3 at 1, B5 at 4, S8 at 11 (stapled 1-4 and 4-11 by olefin metathesis); BztA at 13; D-Thr at 14
notes: Stapled peptide; also called Ac-PL3-Asp-Leu-B5-Asp-Glu-Ala-Ala-Phe-Asn-S8-Phe-BztA-dThr-NH2
IC50 [2]: 115 nM

B12: I-752 (peptide)
peptide: Ac-[αAllylPro]DL[B5(4)]DEAAFN[S8]F[Bta]N-NH2
modifications: staple 1-4, 4-11; also: olefin E/Z not assigned, earlier-eluting staple isomer
notes: Stapled peptide; also called Ac-PL3-Asp-Leu-B5-Asp-Glu-Ala-Ala-Phe-Asn-S8-Phe-BztA-Asn-NH2
NanoBRET Abs IC50 [4]: 9900 nM
IC50 [2]: 16 nM

B13: I-753 (peptide)
peptide: Ac-[αAllylPro]DL[B5(4)]DEAAFN[S8]F[Bta]N-NH2
modifications: staple 1-4, 4-11; also: olefin E/Z not assigned, later-eluting staple isomer
notes: as for B12
NanoBRET Abs IC50 [4]: 10000 nM
IC50 [2]: 14 nM
